# Numbered stars: 1 amine (or outer) side, 2 acyl side, 3 side chain; on linkers, the order of the positions; unused ones are H or OH. Square brackets hold non-standard residues; d marks the D form. Side chains are listed from the residue outwards. Ends that are not written are not given here. * marks the point of attachment. C20 diacid = O=C(O)CCCCCCCCCCCCCCCCCCC(=O)*; C18 diacid = O=C(O)CCCCCCCCCCCCCCCCC(=O)*; αMePhe(2-F) = C[C@](N)(Cc1ccccc1F)C(=O)O; γGlu = O=C(O)[C@H](CCC(=O)[*:2])N[*:1]; αMeL = CC(C)C[C@](C)(N)C(=O)O; αMeK = C[C@](N)(CCCCN)C(=O)O; αMeP = C[C@@]1(C(=O)O)CCCN1; AEEA = NCCOCCOCC(=O)O; Aib = CC(C)(N)C(=O)O
# Target: human GLP-1 receptor (human, UniProt P43220 24-463)
# Assay: cell-based or functional assay
row,Binder,hGLPIR cAMP EC50 ratio
1,Y[Aib]EGT[αMePhe(2-F)]TSDHSI[αMeL]LDEK([AEEA-AEEA-γGlu-C18 diacid])AQ[Aib]HFI[dE]YLIEGGPSSG-NH2 (N-terminus assumed; SMILES CC[C@H](C)[C@H](NC(=O)[C@H](CC(C)C)NC(=O)[C@H](Cc1ccc(O)cc1)NC(=O)[C@@H](CCC(=O)O)NC(=O)[C@@H](NC(=O)[C@H](Cc1ccccc1)NC(=O)[C@H](Cc1c[nH]cn1)NC(=O)C(C)(C)NC(=O)[C@H](CCC(N)=O)NC(=O)[C@H](C)NC(=O)[C@H](CCCCNC(=O)COCCOCCNC(=O)COCCOCCNC(=O)CC[C@H](NC(=O)CCCCCCCCCCCCCCCCC(=O)O)C(=O)O)NC(=O)[C@H](CCC(=O)O)NC(=O)[C@H](CC(=O)O)NC(=O)[C@H](CC(C)C)NC(=O)[C@](C)(CC(C)C)NC(=O)[C@@H](NC(=O)[C@H](CO)NC(=O)[C@H](Cc1c[nH]cn1)NC(=O)[C@H](CC(=O)O)NC(=O)[C@H](CO)NC(=O)[C@@H](NC(=O)[C@](C)(Cc1ccccc1F)NC(=O)[C@@H](NC(=O)CNC(=O)[C@H](CCC(=O)O)NC(=O)C(C)(C)NC(=O)[C@@H](N)Cc1ccc(O)cc1)[C@@H](C)O)[C@@H](C)O)[C@@H](C)CC)[C@@H](C)CC)C(=O)N[C@@H](CCC(=O)O)C(=O)NCC(=O)NCC(=O)N1CCC[C@H]1C(=O)N[C@@H](CO)C(=O)N[C@@H](CO)C(=O)NCC(N)=O) [Peptide 179],0.0169
2,Y[Aib]EGTFTSDYSI[αMeL]LDEK([AEEA-AEEA-γGlu-C20 diacid])AQ[αMeK]AFIEYLLE[Aib]GPSSGAPPPS-NH2 (N-terminus assumed; SMILES CC[C@H](C)[C@H](NC(=O)[C@H](Cc1ccccc1)NC(=O)[C@H](C)NC(=O)[C@](C)(CCCCN)NC(=O)[C@H](CCC(N)=O)NC(=O)[C@H](C)NC(=O)[C@H](CCCCNC(=O)COCCOCCNC(=O)COCCOCCNC(=O)CC[C@H](NC(=O)CCCCCCCCCCCCCCCCCCC(=O)O)C(=O)O)NC(=O)[C@H](CCC(=O)O)NC(=O)[C@H](CC(=O)O)NC(=O)[C@H](CC(C)C)NC(=O)[C@](C)(CC(C)C)NC(=O)[C@@H](NC(=O)[C@H](CO)NC(=O)[C@H](Cc1ccc(O)cc1)NC(=O)[C@H](CC(=O)O)NC(=O)[C@H](CO)NC(=O)[C@@H](NC(=O)[C@H](Cc1ccccc1)NC(=O)[C@@H](NC(=O)CNC(=O)[C@H](CCC(=O)O)NC(=O)C(C)(C)NC(=O)[C@@H](N)Cc1ccc(O)cc1)[C@@H](C)O)[C@@H](C)O)[C@@H](C)CC)C(=O)N[C@@H](CCC(=O)O)C(=O)N[C@@H](Cc1ccc(O)cc1)C(=O)N[C@@H](CC(C)C)C(=O)N[C@@H](CC(C)C)C(=O)N[C@@H](CCC(=O)O)C(=O)NC(C)(C)C(=O)NCC(=O)N1CCC[C@H]1C(=O)N[C@@H](CO)C(=O)N[C@@H](CO)C(=O)NCC(=O)N[C@@H](C)C(=O)N1CCC[C@H]1C(=O)N1CCC[C@H]1C(=O)N1CCC[C@H]1C(=O)N[C@@H](CO)C(N)=O) [Peptide 22],0.29
3,Y[Aib]EGTFTSDYSK([AEEA-AEEA-γGlu-C20 diacid])LLDKIAQ[Aib]AFIEYLIEGGPSSGAPPPS-NH2 (N-terminus assumed; SMILES CC[C@H](C)[C@H](NC(=O)[C@H](CCCCN)NC(=O)[C@H](CC(=O)O)NC(=O)[C@H](CC(C)C)NC(=O)[C@H](CC(C)C)NC(=O)[C@H](CCCCNC(=O)COCCOCCNC(=O)COCCOCCNC(=O)CC[C@H](NC(=O)CCCCCCCCCCCCCCCCCCC(=O)O)C(=O)O)NC(=O)[C@H](CO)NC(=O)[C@H](Cc1ccc(O)cc1)NC(=O)[C@H](CC(=O)O)NC(=O)[C@H](CO)NC(=O)[C@@H](NC(=O)[C@H](Cc1ccccc1)NC(=O)[C@@H](NC(=O)CNC(=O)[C@H](CCC(=O)O)NC(=O)C(C)(C)NC(=O)[C@@H](N)Cc1ccc(O)cc1)[C@@H](C)O)[C@@H](C)O)C(=O)N[C@@H](C)C(=O)N[C@@H](CCC(N)=O)C(=O)NC(C)(C)C(=O)N[C@@H](C)C(=O)N[C@@H](Cc1ccccc1)C(=O)N[C@H](C(=O)N[C@@H](CCC(=O)O)C(=O)N[C@@H](Cc1ccc(O)cc1)C(=O)N[C@@H](CC(C)C)C(=O)N[C@H](C(=O)N[C@@H](CCC(=O)O)C(=O)NCC(=O)NCC(=O)N1CCC[C@H]1C(=O)N[C@@H](CO)C(=O)N[C@@H](CO)C(=O)NCC(=O)N[C@@H](C)C(=O)N1CCC[C@H]1C(=O)N1CCC[C@H]1C(=O)N1CCC[C@H]1C(=O)N[C@@H](CO)C(N)=O)[C@@H](C)CC)[C@@H](C)CC) [Peptide 25],0.197
4,YXEGTXTSDHSIXLDEKAQXTFIXYLIEGGPSSGAPPPS (Aib2; αMeF(2F)6; αMeL13; K17((2-[2-(2-Amino-ethoxy)-ethoxy]-acetyl)2-(εK)-CO-(CH2)16-CO2H); Aib20; D-Glu24; C-terminal NH2) [Peptide 176],0.0427
5,YXEGTXTSDYSIXLDKKAQXEFIXYLIEGGPSSGAPPPS (Aib2; αMeF(2F)6; αMeL13; K17((2-[2-(2-Amino-ethoxy)-ethoxy]-acetyl)-(γGlu)-(2-[2-(2-Amino-ethoxy)-ethoxy]-acetyl)-CO-(CH2)18-CO2H); Aib20; D-Glu24; C-terminal NH2) [Peptide 211],1.28
6,YXEGTXTSDYSIXLDEKAQXEFIXYLIEGGPSSGAPPPS (Aib2; αMeF(2F)6; αMeL13; K17((2-[2-(2-Amino-ethoxy)-ethoxy]-acetyl)2-(γGlu)-CO-(CH2)14-CO2H); Aib20; D-Glu24; C-terminal NH2) [Peptide 208],0.587
7,YXEGTXTSDXSIXLDKKAQXEFIXYLIEGGPSSGAPPPS (Aib2; αMeF(2F)6; 4Pal10; αMeL13; K17((2-[2-(2-Amino-ethoxy)-ethoxy]-acetyl)2-(γGlu)-CO-(CH2)18-CO2H); Aib20; D-Glu24; C-terminal NH2) [Peptide 203],0.671
8,YXEGTXTSDXSIXLDEKAQXEFIXYLIEGGPSSGAPPPS (Aib2; αMeF(2F)6; 4Pal10; αMeL13; K17((2-[2-(2-Amino-ethoxy)-ethoxy]-acetyl)2-CO-(CH2)16-CO2H); Aib20; D-Glu24; C-terminal NH2) [Peptide 205],1.46
9,YXEGTXTSDXSIXLDEKAQXEFIXYLIEGGPSSGAPPPS (Aib2; αMeF(2F)6; 4Pal10; αMeL13; K17((2-[2-(2-Amino-ethoxy)-ethoxy]-acetyl)2-CO-(CH2)18-CO2H); Aib20; D-Glu24; C-terminal NH2) [Peptide 206],1.42
10,YXEGTXTSDLSIXLDEKAQXEFIXYLIEGGPSSGAPPPS (Aib2; αMeF(2F)6; αMeL13; K17((2-[2-(2-Amino-ethoxy)-ethoxy]-acetyl)2-(γGlu)-CO-(CH2)18-CO2H); Aib20; D-Glu24; C-terminal NH2) [Peptide 183],0.843
11,YXEGTXTSDXSIXLDEKAQXEFIXYLIEGGPSSGAPPPS (Aib2; αMeF(2F)6; 3Pal10; αMeL13; K17((2-[2-(2-Amino-ethoxy)-ethoxy]-acetyl)2-(γGlu)-CO-(CH2)18-CO2H); Aib20; D-Glu24; C-terminal NH2) [Peptide 181],0.718
12,YXEGTXTSDXSIXLDEKAQXEFIXYLIEGGPSSGAPPPS (Aib2; αMeF(2F)6; 4Pal10; αMeL13; K17((2-[2-(2-Amino-ethoxy)-ethoxy]-acetyl)2-(γGlu)-CO-(CH2)18-CO2H); Aib20; Aib24; C-terminal NH2) [Peptide 189],0.668
13,YXEGTXTSDXSIXLDEKAQXEFIXYLIEGGPSSGAPPPS (Aib2; αMeF(2F)6; 4Pal10; αMeL13; K17((2-[2-(2-Amino-ethoxy)-ethoxy]-acetyl)2-(γGlu)-CO-(CH2)18-CO2H); Aib20; D-Glu24; C-terminal NH2) [Peptide 182],0.873
14,YXEGTXTSDQSIXLDEKAQXEFIXYLIEGGPSSGAPPPS (Aib2; αMeF(2F)6; αMeL13; K17((2-[2-(2-Amino-ethoxy)-ethoxy]-acetyl)2-(γGlu)-CO-(CH2)18-CO2H); Aib20; D-Glu24; C-terminal NH2) [Peptide 187],0.702
15,YXEGTXTSDYSIXLDKKAQXEFIXYLIEGGPSSGAPPPS (Aib2; αMeF(2F)6; αMeL13; K17((2-[2-(2-Amino-ethoxy)-ethoxy]-acetyl)2-(γGlu)-CO-(CH2)18-CO2H); Aib20; D-Glu24; C-terminal NH2) [Peptide 212],0.771
16,YXEGTXTSDYSIXLDXKAQXEFIXYLIEGGPSSGAPPPS (Aib2; αMeF(2F)6; αMeL13; Dap16; K17((2-[2-(2-Amino-ethoxy)-ethoxy]-acetyl)2-(γGlu)-CO-(CH2)16-CO2H); Aib20; D-Glu24; C-terminal NH2) [Peptide 210],1.03
17,YXEGTXTSDHSIXLDEKAQXHFIXYLIEGGPSSGAPPPS (Aib2; αMeF(2F)6; αMeL13; K17((2-[2-(2-Amino-ethoxy)-ethoxy]-acetyl)2-(γGlu)-CO-(CH2)14-CO2H); Aib20; D-Glu24; C-terminal NH2) [Peptide 178],0.00349
18,YXEGTXTSDXSIXLDEKAQXEFIXYLIEGGPSSGAPPPS (Aib2; αMeF(2F)6; 4Pal10; αMeL13; K17((2-[2-(2-Amino-ethoxy)-ethoxy]-acetyl)2-(εK)-CO-(CH2)18-CO2H); Aib20; D-Glu24; C-terminal NH2) [Peptide 207],1.23
19,YXEGTXTSDXSIXLDKKAQXEFIXYLIEGGPSSGAPPPS (Aib2; αMeF(2F)6; 4Pal10; αMeL13; K17((2-[2-(2-Amino-ethoxy)-ethoxy]-acetyl)-(γGlu)-(2-[2-(2-Amino-ethoxy)-ethoxy]-acetyl)-CO-(CH2)18-CO2H); Aib20; D-Glu24; C-terminal NH2) [Peptide 202],0.712
20,YXEGTXTSDXSIXLDEKAQXEFIXYLIEGGPSSGAPPPS (Aib2; αMeF(2F)6; 4Pal10; αMeL13; K17((2-[2-(2-Amino-ethoxy)-ethoxy]-acetyl)2-(γGlu)-CO-(CH2)16-CO2H); Aib20; D-Glu24; C-terminal NH2) [Peptide 204],0.689
21,Y[Aib]EGT[αMePhe(2-F)]TSDHSI[αMeL]LDEK([AEEA-AEEA-γGlu-C18 diacid])AQ[Aib]HFI[dE]YLIEGG-NH2 (N-terminus assumed; SMILES CC[C@H](C)[C@H](NC(=O)[C@H](CC(C)C)NC(=O)[C@H](Cc1ccc(O)cc1)NC(=O)[C@@H](CCC(=O)O)NC(=O)[C@@H](NC(=O)[C@H](Cc1ccccc1)NC(=O)[C@H](Cc1c[nH]cn1)NC(=O)C(C)(C)NC(=O)[C@H](CCC(N)=O)NC(=O)[C@H](C)NC(=O)[C@H](CCCCNC(=O)COCCOCCNC(=O)COCCOCCNC(=O)CC[C@H](NC(=O)CCCCCCCCCCCCCCCCC(=O)O)C(=O)O)NC(=O)[C@H](CCC(=O)O)NC(=O)[C@H](CC(=O)O)NC(=O)[C@H](CC(C)C)NC(=O)[C@](C)(CC(C)C)NC(=O)[C@@H](NC(=O)[C@H](CO)NC(=O)[C@H](Cc1c[nH]cn1)NC(=O)[C@H](CC(=O)O)NC(=O)[C@H](CO)NC(=O)[C@@H](NC(=O)[C@](C)(Cc1ccccc1F)NC(=O)[C@@H](NC(=O)CNC(=O)[C@H](CCC(=O)O)NC(=O)C(C)(C)NC(=O)[C@@H](N)Cc1ccc(O)cc1)[C@@H](C)O)[C@@H](C)O)[C@@H](C)CC)[C@@H](C)CC)C(=O)N[C@@H](CCC(=O)O)C(=O)NCC(=O)NCC(N)=O) [Peptide 180],0.0212
22,Y[αMeP]EGTFTSDYSILLDEK([AEEA-AEEA-γGlu-C18 diacid])AQQAFIEYLIEGGPSSG-NH2 (N-terminus assumed; SMILES CC[C@H](C)[C@H](NC(=O)[C@H](CC(C)C)NC(=O)[C@H](Cc1ccc(O)cc1)NC(=O)[C@H](CCC(=O)O)NC(=O)[C@@H](NC(=O)[C@H](Cc1ccccc1)NC(=O)[C@H](C)NC(=O)[C@H](CCC(N)=O)NC(=O)[C@H](CCC(N)=O)NC(=O)[C@H](C)NC(=O)[C@H](CCCCNC(=O)COCCOCCNC(=O)COCCOCCNC(=O)CC[C@H](NC(=O)CCCCCCCCCCCCCCCCC(=O)O)C(=O)O)NC(=O)[C@H](CCC(=O)O)NC(=O)[C@H](CC(=O)O)NC(=O)[C@H](CC(C)C)NC(=O)[C@H](CC(C)C)NC(=O)[C@@H](NC(=O)[C@H](CO)NC(=O)[C@H](Cc1ccc(O)cc1)NC(=O)[C@H](CC(=O)O)NC(=O)[C@H](CO)NC(=O)[C@@H](NC(=O)[C@H](Cc1ccccc1)NC(=O)[C@@H](NC(=O)CNC(=O)[C@H](CCC(=O)O)NC(=O)[C@]1(C)CCCN1C(=O)[C@@H](N)Cc1ccc(O)cc1)[C@@H](C)O)[C@@H](C)O)[C@@H](C)CC)[C@@H](C)CC)C(=O)N[C@@H](CCC(=O)O)C(=O)NCC(=O)NCC(=O)N1CCC[C@H]1C(=O)N[C@@H](CO)C(=O)N[C@@H](CO)C(=O)NCC(N)=O) [Peptide 197],0.189

# — patent publication US20230293638A1 (Eli Lilly, published 2023)
